Positions count from the first letter of the chain named. Names may count otherwise.
B1: αIIb transmembrane-cytoplasmic domain (αIIb TMCD, E960-E1008) (domain or fragment)
chain: not shown
B2: integrin αIIb cytoplasmic tail (αIIb CT, W988-E1008) (peptide, UniProt P08514 1019-1039, looked up)
chain: WKVGFFKRNRPPLEEDDEEGE
B3: FLNa-Ig21-β3-CT chimera (other, human)
chain: KLLITIHDRKEFAKFEEERARAKWDTANNPLYKEATSTFTNITYRGTGASGSGASGSGGAHKVRAGGPGLERAEAGVPAEFSIWTREAGAGGLAIAVEGPSKAEISFEDRKDGSCGVAYVVQEPGDYEVSVKFNEEHIPDSPFVVPVASPSG
B4: integrin β3 cytoplasmic tail (β3 CT, K716-T762) (domain or fragment, human, UniProt P05106 742-788, looked up)
chain: KLLITIHDRKEFAKFEEERARAKWDTANNPLYKEATSTFTNITYRGT
B5: β3-CT L717K-L718K mutant (domain or fragment, human, UniProt P05106 742-788, looked up)
chain: B4 chain with L2K, L3K

Tests used:
[1] = biological target: T1, β3 transmembrane-cytoplasmic domain (β3 TMCD, K689-T762) (human, UniProt P05106 715-788); assay: NMR titration
T1 sequence (looked up): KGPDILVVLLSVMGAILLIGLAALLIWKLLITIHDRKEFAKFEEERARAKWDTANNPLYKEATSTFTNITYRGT

[2] = biological target: B4
[3] = biological target: T2, FLNa-Ig21 A2268K (human, UniProt P21333 2236-2330, A2268K); assay: NMR titration
T2 sequence: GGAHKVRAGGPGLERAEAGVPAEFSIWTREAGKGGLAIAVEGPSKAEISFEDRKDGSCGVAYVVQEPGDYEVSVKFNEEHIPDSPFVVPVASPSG

[4] = biological target: T3, GST-FLNa-Ig21-β3 CT chimera (human, UniProt P05106 742-788; P21333 2236-2330); assay: pull-down
T3 chain: B3 chain

[5] = biological target: T4, FLNa-Ig21 pre-saturated β3-CT (human, UniProt P21333 2236-2330; P05106 742-788); assay: SPR
T4 sequence 1: T2 sequence with K33A
T4 sequence 2: B4 chain

[6] = biological target: B5; assay: NMR structure
[7] = biological target: B4; assay: NMR titration
[8] = biological target: B2; assay: SPR
[9] = biological target: T5, filamin A immunoglobulin repeat 21 (FLNa-Ig21) (human, UniProt P21333 2236-2330); assay: NMR titration
T5 sequence: T2 sequence with K33A

[10] = biological target: T6, FLNa-Ig21 E2276A (human, UniProt P21333 2236-2330, E2276A); assay: NMR titration
T6 sequence: T2 sequence with K33A, E41A

[11] = biological target: T5, filamin A immunoglobulin repeat 21 …; assay: SPR

Binder: B1
- binding result [1]: binds

Binder: B2
- Kd [2]: ~368 µM
- binding result [3]: binds
- binding result [4]: binds
- binding result [5]: binds
- binding result [6]: binds

Binder: WKVGFFERNEPPLEEDDEEGE (peptide, UniProt P08514 1019-1039, looked up) [αIIb CT K994E-R997E mutant]
- binding result [7]: binds

Binder: B3
- Kd [8]: ~19 µM

Binder: B4
- binding result [9]: binds
- binding result [10]: binds

Binder: B5
- binding result [9]: binds

Binder: KLLITIHDRKEFAKFEEERARAKW (peptide, UniProt P05106 742-765, looked up) [integrin β3 membrane-proximal fragment β3-N (K716-W739)]
- Kd [11]: ~223 µM
